In patent US20180282429A1 (Zymeworks, published 2018):

Legend:
[1] = target: T1, recombinant human HER2 (human, UniProt P04626 23-652); experiment: SPR by the protocol of Example 12, sample after SEC, against v10013
T1 construct: extracellular domain
Experimental: (§1) Between 2000 and 4000 RU of anti-human Fc injected at concentration between 5 and 10 μg/ml was immobilized on a CM5 chip using standard amine coupling. […] HER2 dilutions were analyzed in duplicate. Sensograms were fit globally to a 1:1 Langmuir binding model. All experiments were conducted at 25° C.
(§2) The SPR was measured before and after SEC purification.

[2] = target: T1, recombinant human HER2; experiment: SPR by the protocol of Example 12, sample before SEC, against v10013
Experimental: as §1, §2

B1: Variant 10014 (antibody, human IgG1, kappa)
heavy: EVQLVESGGGLVQPGGSLRLSCAASGFTFADYTMDWVRQAPGKGLEWVADVNPNSGGSIYNQRFKGRFTLSVDRSKNTLYLQMNSLRAEDTAVYYCARNLGPSFYFDYWGQGTLVTVSSASTKGPSVFPLAPSSKSTSGGTAALGCLVKDYFPEPVTVSWNSGALTSGVHTFPAVLQSSGLYSLSSVVTVPSSSLGTQTYICNVNHKPSNTKVDKKVEPKSCDKTHTCPPCPAPELLGGPSVFLFPPKPKDTLMISRTPEVTCVVVDVSHEDPEVKFNWYVDGVEVHNAKTKPREEQYNSTYRVVSVLTVLHQDWLNGKEYKCKVSNKALPAPIEKTISKAKGQPREPQVYVYPPSRDELTKNQVSLTCLVKGFYPSDIAVEWESNGQPENNYKTTPPVLDSDGSFALVSKLTVDKSRWQQGNVFSCSVMHEALHNHYTQKSLSLSPG
light: not shown
Fc: not shown
notes: also called v10014
B1 was tested, and the “Fold wrt WT (KD(WT)/KD(mut))” value [1] was 7 fold and the “Fold wrt WT (KD(WT)/KD(mut))” value [2] was 8.1 fold.
